Assay results as given in patent US20100135948A1 (University of Pennsylvania, published 2010).
Where no end group is shown, it is not given here.

B1: control peptide phage displaying a non-consensus sequence (peptide, not shown: large carriers)
peptide: DLNYFTLSSKRE
modifications: also: displayed on phage, fused to pIII coat protein, linker not given here
notes: Control phage clone; tested as phage particle; also called control phage
B2: P14 peptide phage (peptide, not shown: large carriers)
peptide: TTLTLRH
modifications: also: displayed on phage, fused to pIII
notes: Monoclonal phage clone; tested as phage particle
B3: P7 peptide phage (peptide, not shown: large carriers)
peptide: YSNKTPHLQWRL
modifications: also: displayed on phage, fused to pIII coat protein, linker not given here
notes: as for B2
B4: P4 peptide phage (peptide, not shown: large carriers)
peptide: ANKTSPFLMWRL
modifications: also: displayed on phage, fused to pIII
notes: Monoclonal phage clone from round 3 of screening with (D31)2/29 IgG; tested as phage particle
B5: P5 peptide phage (peptide, not shown: large carriers)
peptide: WANKQPTIIWRS
modifications: also: displayed on phage, fused to pIII coat protein, linker not given here
notes: as for B2
B6: P9 peptide phage (peptide, not shown: large carriers)
peptide: AKNPPTLIWKHT
modifications: also: displayed on phage, fused to pIII coat protein, linker not given here
notes: as for B2
B7: P8 peptide phage (peptide, not shown: large carriers)
peptide: TDKTPFLLWRVH
modifications: also: displayed on phage, fused to pIII coat protein, linker not given here
notes: as for B2
B8: P10 peptide phage (peptide, not shown: large carriers)
peptide: QHNKSPNLYWRS
modifications: also: displayed on phage, fused to pIII
notes: as for B2

These binders were tested against T1, (D31)2/29 scFv (assay: ELISA inhibition, monoclonal peptide phage preincubated with PV scFv, Dsg plate (Dsg3 by paragraph 281)).
T1 construct: also called pathogenic PV mAb
Experimental: (§1) For ELISA inhibition assays, anti-idiotypic reagents were pre-incubated with PV mAbs for one hour at 37° C. prior to incubation on Dsg3 or Dsg1 ELISA plates (Rhigene/MBL), which were otherwise processed according to manufacturer's instructions. Anti-idiotypic antisera were effective and dose responsive at dilutions ranging from 1:3 to 1:6400, while peptide phage were used in inhibition assays from 10⁸ to 10¹⁰ pfu/well. PV scFv binding, detected with HRP-conjugated anti-HA secondary antibody (Roche), was titrated to a final OD450 reading of 0.4-1.0, which was within the linear range of detection.
(§2) Select peptide phage were tested for their ability to inhibit binding of PV mAbs to Dsg substrates by ELISA (Table 4).

Binder | percent inhibition
B1 | 15%
B2 | 16%
B3 | 83%
B4 | 78%

What follows are binders tested against T2, (D3)1d/2c scFv in the same assay as above.
T2 construct: also called nonpathogenic PV mAb
Experimental: as §1, §2

Binder | percent inhibition
B1 | 8%
B2 | 8%
B3 | 9%
B4 | 14%

What follows are binders tested against T3, (D3)3c/9 scFv in the same assay as above.
T3 construct: also called pathogenic PV mAb
Experimental: as §1, §2

Binder | percent inhibition
B1 | 8%
B2 | 5%
B3 | 6%
B4 | 7%

The binders below were run against T4, (D31)2/28 scFv in the same assay as above.
T4 construct: Human anti-Dsg3/Dsg1 scFv from the PV(1) phage library (pComb3X, nickel-purified, HA-detected); also called pathogenic PV mAb
Experimental: as §1, §2

Binder | percent inhibition
B1 | 2%
B2 | 15%
B3 | 12%
B4 | 9%

The binders below were run against T5, (D31)12b/6 scFv in the same assay as above.
T5 construct: also called nonpathogenic PV mAb
Experimental: as §1, §2

Binder | percent inhibition
B1 | 11%
B2 | 13%
B3 | 8%
B4 | 10%

The binders below were run against T6, desmoglein 3 (human, UniProt P32926 50-615, limits assumed) (assay: ELISA).
T6 construct: Antigen on commercial ELISA plates; also called Dsg3; Dsg 3
T6 sequence (looked up): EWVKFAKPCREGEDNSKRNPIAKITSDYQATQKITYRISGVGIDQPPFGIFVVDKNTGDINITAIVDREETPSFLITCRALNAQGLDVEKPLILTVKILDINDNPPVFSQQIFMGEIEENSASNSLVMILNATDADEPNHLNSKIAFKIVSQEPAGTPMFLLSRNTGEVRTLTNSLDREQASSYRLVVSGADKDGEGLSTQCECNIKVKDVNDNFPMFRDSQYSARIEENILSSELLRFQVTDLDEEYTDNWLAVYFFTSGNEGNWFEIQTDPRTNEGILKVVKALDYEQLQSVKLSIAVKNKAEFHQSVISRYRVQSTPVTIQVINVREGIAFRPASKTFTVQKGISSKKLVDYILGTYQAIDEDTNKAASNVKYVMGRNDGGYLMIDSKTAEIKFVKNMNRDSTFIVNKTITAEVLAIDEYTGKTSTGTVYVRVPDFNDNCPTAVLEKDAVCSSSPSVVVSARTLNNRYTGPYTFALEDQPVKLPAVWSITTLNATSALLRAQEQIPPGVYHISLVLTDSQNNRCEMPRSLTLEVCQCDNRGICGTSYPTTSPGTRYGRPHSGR

Binder | binding result
B5 | no binding
B6 | no binding
B7 | no binding
B8 | no binding
B2 | no binding
B3 | no binding
B4 | no binding
